T1: RING1B, full-length (UniProt Q99496 1-336)
T1 sequence (looked up): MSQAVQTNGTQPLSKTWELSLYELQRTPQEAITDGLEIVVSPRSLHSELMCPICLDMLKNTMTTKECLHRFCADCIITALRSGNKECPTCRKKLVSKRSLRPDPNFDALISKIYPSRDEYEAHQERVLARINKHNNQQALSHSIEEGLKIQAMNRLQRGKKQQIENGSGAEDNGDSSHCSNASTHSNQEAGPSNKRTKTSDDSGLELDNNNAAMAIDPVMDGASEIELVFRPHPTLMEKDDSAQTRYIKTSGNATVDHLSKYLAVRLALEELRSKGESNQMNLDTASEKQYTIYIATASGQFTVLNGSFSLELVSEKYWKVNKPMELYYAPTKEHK

B1: PCGF1 35–255 (RING finger and RAWUL domains) (domain or fragment, UniProt Q9BSM1 35-255, looked up)
chain: RVKIKDLNEHIVCCLCAGYFVDATTITECLHTFCKSCIVKYLQTSKYCPMCNIKIHETQPLLNLKLDRVMQDIVYKLVPGLQDSEEKRIREFYQSRGLDRVTQPTGEEPALSNLGLPFSSFDHSKAHYYRYDEQLNLCLERLSSGKDKNKSVLQNKYVRCSVRAEVRHLRRVLCHRLMLNPQHVQLLFDNEVLPDHMTMKQIWLSRWFGKPSPLLLQYSVK

Legend:
[1] = target: B1; assay: AUC
[2] = target: T1, RING1B, full-length; assay: AUC
[3] = target: KDM2B 1059–1336/SKP1 heterodimer (UniProt Q8NHM5 1059-1336; P63208 2-163); assay: ITC
KDM2B 1059–1336/SKP1 heterodimer, sequence (Q8NHM5 1059-1336, chain 1 of 2): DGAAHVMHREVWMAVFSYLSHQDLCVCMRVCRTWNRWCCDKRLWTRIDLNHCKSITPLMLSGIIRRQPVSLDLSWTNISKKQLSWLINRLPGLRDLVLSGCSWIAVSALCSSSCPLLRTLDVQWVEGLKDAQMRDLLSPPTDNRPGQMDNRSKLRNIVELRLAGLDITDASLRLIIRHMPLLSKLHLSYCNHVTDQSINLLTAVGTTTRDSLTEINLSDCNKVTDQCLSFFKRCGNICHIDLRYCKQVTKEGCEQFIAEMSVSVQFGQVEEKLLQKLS
KDM2B 1059–1336/SKP1 heterodimer, sequence (P63208 2-163, chain 2 of 2): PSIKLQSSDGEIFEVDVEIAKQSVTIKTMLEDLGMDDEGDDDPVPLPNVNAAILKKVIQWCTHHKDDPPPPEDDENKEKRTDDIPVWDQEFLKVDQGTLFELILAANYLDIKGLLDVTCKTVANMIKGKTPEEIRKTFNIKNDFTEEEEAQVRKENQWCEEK

Row | stoichiometry N [1] | stoichiometry N [2] | Kd [3] [nM] | Binder
1 | 1 | 1 | – | BCORL1 PUFD (1594–1711) (domain or fragment) METRDDFMFELSDKPLLPCYNLQVSVSRGPCNWFLFSDVLKRLKLSSRIFQARFPHFEITTMPKAEFYRQVASSQLLTPAERPGGLDDRSPPGSSETVELVRYEPDLLRLLGSEVEFQSCNS
2 | – | – | 2800 | PCGF1 150–255/BCORL1 PUFD dimer (complex) chain 1: LPFSSFDHSKAHYYRYDEQLNLCLERLSSGKDKNKSVLQNKYVRCSVRAEVRHLRRVLCHRLMLNPQHVQLLFDNEVLPDHMTMKQIWLSRWFGKPSPLLLQYSVK chain 2: METRDDFMFELSDKPLLPCYNLQVSVSRGPCNWFLFSDVLKRLKLSSRIFQARFPHFEITTMPKAEFYRQVASSQLLTPAERPGGLDDRSPPGSSETVELVRYEPDLLRLLGSEVEFQSCNS
3 | – | 1 | – | B1

From paper PMC5088048 (Structure (London, England : 1993), 2016)
